# Laboratory results published in patent US9988424 (DUKE UNIVERSITY, dated 2018).
# Read-outs that look alike come from different tables or passages of the source.
# B1: PG9 (antibody, V domains shown)
# VH: QRLVESGGGVVQPGSSLRLSCAASGFDFSRQGMHWVRQAPGQGLEWVAFIKYDGSEKYHADSVWGRLSISRDNSKDTLYLQMNSLRVEDTATYFCVREAGGPDYRNGYNYYDFYDGYYNYHYMDVWGKGTTVTVSS
# VL: QSALTQPASVSGSPGQSITISCNGTSNDVGGYESVSWYQQHPGKAPKVVIYDVSKRPSGVSNRFSGSKSGNTASLTISGLQAEDEGDYYCKSLTSTRRRVFGTGTKLTVL
# notes: also called mAb PG9; bnAb PG9
# What was measured:
# D.9009SA V1V2 Tags = target: T1, D.9009SA V1V2 Tags; test: ELISA, OD405
# T1 Env construct: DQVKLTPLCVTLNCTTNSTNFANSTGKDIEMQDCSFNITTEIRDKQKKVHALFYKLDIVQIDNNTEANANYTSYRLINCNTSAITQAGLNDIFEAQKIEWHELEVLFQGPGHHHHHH
# B. 681-7 gp140C = test: ELISA, OD405
# AE.A244 gD+ gp120 [1] = target: T2, AE.A244 gD+ gp120 (HIV-1); test: ELISA
# T2 construct: domain: gp120; also called AE.A244 gp120gD+
# A.Q23 V1V2 tags [2] = target: A.Q23 V1V2 tags (HIV-1); test: ELISA
# MN gp120 [3] = target: MN gp120 (HIV-1)
# 92TH023 gp120 [4] = target: 92TH023 gp120 (HIV-1)
# B.HXB/BAL gp140CFI = target: T3, B.HXB/BAL gp140CFI (HIV-1, UniProt P04578 33-680); test: ELISA, OD405 at 10 ug/ml mAb
# T3 construct: also called B.HxB/Ba gp140 CFI
# B.Case A2 V1/V2 Tags [5] = target: T4, B.Case A2 V1/V2 Tags; test: ELISA, OD405 at 10 ug/ml mAb
# T4 Env construct: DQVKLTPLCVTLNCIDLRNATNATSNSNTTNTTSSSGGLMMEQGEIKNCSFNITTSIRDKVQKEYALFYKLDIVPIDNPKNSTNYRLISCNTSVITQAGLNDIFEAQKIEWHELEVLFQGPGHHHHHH
# B.63521_V1V2 Tags = target: T5, B.63521_V1V2 Tags; test: ELISA, OD405 at 10 ug/ml mAb
# T5 Env construct: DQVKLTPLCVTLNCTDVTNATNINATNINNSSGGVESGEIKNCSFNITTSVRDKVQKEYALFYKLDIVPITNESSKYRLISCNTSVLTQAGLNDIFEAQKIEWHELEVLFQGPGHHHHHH
# A.9004SS V1V2 Tags = target: T6, A.9004SS V1V2 Tags; test: ELISA, OD405 at 10 ug/ml mAb
# T6 Env construct: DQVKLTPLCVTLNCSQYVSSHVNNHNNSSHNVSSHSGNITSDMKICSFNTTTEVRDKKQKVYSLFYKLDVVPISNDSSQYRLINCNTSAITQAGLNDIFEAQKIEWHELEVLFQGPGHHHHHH
# B.63521 gp140C = test: ELISA, OD405 at 10 ug/ml mAb
# J08 C.ZM109.V1V2 [6] = target: J08 C.ZM109.V1V2 (HIV-1); test: SPR
# 1C.FD6-ZM109 = test: SPR
# B.63521_V1/V2 tags = test: ELISA, OD405 at 10 ug/ml
# D.9009SA V1/V2 tags = test: ELISA, OD405 at 10 ug/ml
# B.Case A2 V1/V2 tags [7] = test: ELISA, OD405 at 10 ug/ml
# A.9004SS V1/V2 tags = target: T7, A.9004SS V1/V2 tags; test: ELISA, OD405 at 10 ug/ml
# T7 V1V2 tags construct: T6 Env construct
# [8] = target: T8, AE.A244 V1/V2 Tags N156QN160Q (HIV-1); test: ELISA
# T8 chain: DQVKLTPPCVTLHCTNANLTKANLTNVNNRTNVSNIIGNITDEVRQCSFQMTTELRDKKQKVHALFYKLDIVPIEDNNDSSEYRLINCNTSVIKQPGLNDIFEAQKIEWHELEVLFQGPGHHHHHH
# MN gp120 [9] = target: MN gp120 (HIV-1); remark: listed apart in the source
# 92TH023 gp120 [10] = target: 92TH023 gp120 (HIV-1); remark: listed apart in the source
# AE.A244 gD+ gp120 [11] = target: T2, AE.A244 gD+ gp120; test: ELISA; remark: listed apart in the source
# A.Q23 V1V2 tags [12] = target: A.Q23 V1V2 tags (HIV-1); test: ELISA; remark: listed apart in the source
# J08 C.ZM109.V1V2 [13] = target: J08 C.ZM109.V1V2 (HIV-1); test: ELISA
# J08 B.HXB2/BALV1V2 = target: T9, J08 B.HXB2/BALV1V2 (HIV-1); test: ELISA
# T9 construct: also called J08 B.HXB/BAL V1V2
# T9 chain: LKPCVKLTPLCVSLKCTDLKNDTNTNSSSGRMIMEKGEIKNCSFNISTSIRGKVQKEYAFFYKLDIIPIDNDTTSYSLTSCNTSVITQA
# J08 A.92RW020V1V2 = J08 A.92RW020V1V2 (HIV-1); test: ELISA
binder,measurement,setting,value
B1,binding result,D.9009SA V1V2 Tags,no binding (tested: 10 ug/ml)
same,binding result,B. 681-7 gp140C,no binding (tested: 10 ug/ml)
same,EC50,AE.A244 gD+ gp120 [1],0.7 nM
same,EC50,A.Q23 V1V2 tags [2],14.9 nM
same,IC50,MN gp120 [3],10 to 100 nM
same,IC50,92TH023 gp120 [4],100 to 1000 nM
same,binding result,B.HXB/BAL gp140CFI,binds
same,binding result,B.Case A2 V1/V2 Tags [5],binds
same,binding result,B.63521_V1V2 Tags,binds
same,binding result,A.9004SS V1V2 Tags,binds
same,binding result,B.63521 gp140C,binds
same,Kd,J08 C.ZM109.V1V2 [6],318 nM
same,Kd,1C.FD6-ZM109,4820 nM
same,binding result,B.63521_V1/V2 tags,binds
same,binding result,D.9009SA V1/V2 tags,no binding (tested: 10 ug/ml)
same,binding result,B.Case A2 V1/V2 tags [7],binds
same,binding result,A.9004SS V1/V2 tags,binds
same,binding result,[8],no binding (tested: 100 ug/ml)
same,IC50,MN gp120 [9],10 to 100 nM
same,IC50,92TH023 gp120 [10],100 to 1000 nM
same,EC50,AE.A244 gD+ gp120 [11],0.7 nM
same,EC50,A.Q23 V1V2 tags [12],14.9 nM
same,EC50,J08 C.ZM109.V1V2 [13],0.23 nM
same,EC50,J08 B.HXB2/BALV1V2,149 nM
same,EC50,J08 A.92RW020V1V2,64 nM
